B1: Serine/threonine-protein kinase RAD53 (Saccharomyces cerevisiae), P22216 (parent)
chain: MENITQPTQQSTQATQRFLIEKFSQEQIGENIVCRVICTTGQIPIRDLSADISQVLKEKRSIKKVWTFGRNPACDYHLGNISRLSNKHFQILLGEDGNLLLNDISTNGTWLNGQKVEKNSNQLLSQGDEITVGVGVESDILSLVIFINDKFKQCLEQNKVDRIRSNLKNTSKIASPGLTSSTASSMVANKTGIFKDFSIIDEVVGQGAFATVKKAIERTTGKTFAVKIISKRKVIGNMDGVTRELEVLQKLNHPRIVRLKGFYEDTESYYMVMEFVSGGDLMDFVAAHGAVGEDAGREISRQILTAIKYIHSMGISHRDLKPDNILIEQDDPVLVKITDFGLAKVQGNGSFMKTFCGTLAYVAPEVIRGKDTSVSPDEYEERNEYSSLVDMWSMGCLVYVILTGHLPFSGSTQDQLYKQIGRGSYHEGPLKDFRISEEARDFIDSLLQVDPNNRSTAAKALNHPWIKMSPLGSQSYGDFSQISLSQSLSQQKLLENMDDAQYEFVKAQRKLQMEQQLQEQDQEDQDGKIQGFKIPAHAPIRYTQPKSIEAETREQKLLHSNNTENVKSSKKKGNGRFLTLKPLPDSIIQESLEIQQGVNPFFIGRSEDCNCKIEDNRLSRVHCFIFKKRHAVGKSMYESPAQGLDDIWYCHTGTNVSYLNNNRMIQGTKFLLQDGDEIKIIWDKNNKFVIGFKVEINDTTGLFNEGLGMLQEQRVVLKQTAEEKDLVKKLTQMMAAQRANQPSASSSSMSAKKPPVSDTNNNGNNSVLNDLVESPINANTGNILKRIHSVSLSQSQIDPSKKVKRAKLDQTSKGPENLQFS
partner: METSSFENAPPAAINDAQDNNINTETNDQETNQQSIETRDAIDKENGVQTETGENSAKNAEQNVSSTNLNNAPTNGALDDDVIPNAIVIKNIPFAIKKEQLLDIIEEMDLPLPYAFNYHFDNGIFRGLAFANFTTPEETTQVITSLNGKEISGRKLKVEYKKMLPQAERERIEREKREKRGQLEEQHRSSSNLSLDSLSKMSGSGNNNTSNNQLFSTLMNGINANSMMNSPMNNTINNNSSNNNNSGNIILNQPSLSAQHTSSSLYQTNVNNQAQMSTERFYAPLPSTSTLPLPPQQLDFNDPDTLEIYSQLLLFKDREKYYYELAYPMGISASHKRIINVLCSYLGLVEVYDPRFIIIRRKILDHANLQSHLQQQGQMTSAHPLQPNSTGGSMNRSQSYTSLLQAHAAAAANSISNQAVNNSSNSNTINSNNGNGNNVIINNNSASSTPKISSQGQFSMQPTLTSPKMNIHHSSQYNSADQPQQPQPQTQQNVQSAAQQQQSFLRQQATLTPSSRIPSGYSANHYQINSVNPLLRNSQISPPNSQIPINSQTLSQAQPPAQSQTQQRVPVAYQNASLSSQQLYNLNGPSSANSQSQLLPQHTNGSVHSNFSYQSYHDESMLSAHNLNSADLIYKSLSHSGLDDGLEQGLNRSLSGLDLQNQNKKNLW
B2: RNA-binding protein PIN4 (Saccharomyces cerevisiae), P34217 (parent)
chain: B1 partner

In one test the parent is B1. As to conditions: with pin4_yeast PIN4, P34217.
R70A: the “effect of a mutation on the interaction” value is on record as “disrupting interaction”.

Regarding R70K, the “effect of a mutation on the interaction” value is “disrupting interaction”.

S105T: the “effect of a mutation on the interaction” value is “disrupting interaction”.

Take N107A: the “effect of a mutation on the interaction” value was “disrupting interaction”.

Variants of B2 are the subject of the next test. As to conditions: with rad53_yeast RAD53, P22216.
Consider T305A, for which the “effect of a mutation on the interaction” value is “disrupting interaction”.

The values are drawn from IntAct's records for PubMed 15024067.
